# Laboratory results: US20040073013A1 (Chugai, published 2004)
# Changes are numbered by the printed parent chain.
# B1: MABL2-scFv <HL-0> (scFv)
# scFv: QVQLQQSGPELVKPGASVKMSCKASGYTFANHVIHWVKQKPGQGLEWIGYIYPYNDGTKYNEKFKDKATLTSDKSSTTAYMDLSSLASEDSAVYYCARGGYYTYDDWGQGTTLTVSSDVVMTQSPLSLPVSLGDQASISCRSSQSLVHSNGKTYLHWYLQKPGQSPKLLIYKVSNRFSGVPDRFSGSGSVTDFTLMISRVEAEDLGVYFCSQSTHVPYTFGGGTKLEIKDYKDDDDK
# notes: [H chain V]-[L chain V] without a linker, with a leader at the 5' end and FLAG at the C-terminus; COS7 culture supernatant; also called CF2HL-0/pCOS1
# B2: MABL2-scFv <LH-0> (scFv)
# scFv: DVVMTQSPLSLPVSLGDQASISCRSSQSLVHSNGKTYLHWYLQKPGQSPKLLIYKVSNRFSGVPDRFSGSGSVTDFTLMISRVEAEDLGVYFCSQSTHVPYTFGGGTKLEIKQVQLQQSGPELVKPGASVKMSCKASGYTFANHVIHWVKQKPGQGLEWIGYIYPYNDGTKYNEKFKDKATLTSDKSSTTAYMDLSSLASEDSAVYYCARGGYYTYDDWGQGTTLTVSSDYKDDDDK
# notes: [L chain V]-[H chain V] without a linker, with a leader at the 5' end and FLAG at the C-terminus; COS7 culture supernatant; also called CF2LH-0/pCOS1
# B3: reconstructed single-chain Fv of antibody MABL-2 (MABL2-scFv), from pCHOM2-transfected COS7 cells (scFv)
# scFv: QVQLQQSGPELVKPGASVKMSCKASGYTFANHVIHWVKQKPGQGLEWIGYIYPYNDGTKYNEKFKDKATLTSDKSSTTAYMDLSSLASEDSAVYYCARGGYYTYDDWGQGTTLTVSSGGGGSGGGGSGGGGSDVVMTQSPLSLPVSLGDQASISCRSSQSLVHSNGKTYLHWYLQKPGQSPKLLIYKVSNRFSGVPDRFSGSGSVTDFTLMISRVEAEDLGVYFCSQSTHVPYTFGGGTKLEIKDYKDDDDK
# notes: Tested as COS7 culture supernatant; also called MABL2-scFv/COS7
# B4: chimera MABL-1 antibody (antibody, V domains shown)
# VH: QVQLQQSGPDLVKPGASVKMSCKASGYTFVNHVMHWVKQKPGQGLEWIGYIYPYNDGTKYNEKFKGKATLTSEKSSSAAYMELSSLASEDSAVYYCARGGYYSYDDWGQGTTLTVSS
# VL: DVVMTQTPLSLPVSLGDQASISCRSSQSLLHSKGNTYLQWYLQKPGQSPKLLIYKVSNRFSGVPDRFSGSGSGTDFTLKISRVEAEDLGVYFCSQSTHVPYTSGGGTKLEIK
# notes: Mouse MABL-1 V regions cloned into HEF-kappa and HEF-gamma expression vectors carrying human C regions (WO92/19759); Tested as COS7 culture supernatant
# B5: chimera MABL-2 antibody (antibody, V domains shown)
# VH: B4 VH with D10E, V30A, M34I, G66D, E73D, S77T, A78T, E82D, S103T
# VL: B4 VL with T7S, L30V, K33N, N35K, Q39H, G73V, K79M, S103F
# notes: Mouse MABL-2 V regions cloned into HEF-kappa and HEF-gamma expression vectors carrying human C regions (WO92/19759); Tested as COS7 culture supernatant
# B6: antibody MABL-2 sc(Fv)2, reconstructed polypeptide comprising two H chain V regions and two L chain V regions (other)
# chain: QVQLQQSGPELVKPGASVKMSCKASGYTFANHVIHWVKQKPGQGLEWIGYIYPYNDGTKYNEKFKDKATLTSDKSSTTAYMDLSSLASEDSAVYYCARGGYYTYDDWGQGTTLTVSSGGGGSGGGGSGGGGSDVVMTQSPLSLPVSLGDQASISCRSSQSLVHSNGKTYLHWYLQKPGQSPKLLIYKVSNRFSGVPDRFSGSGSVTDFTLMISRVEAEDLGVYFCSQSTHVPYTFGGGTKLEIKGGGGSGGGGSGGGGSVDSQVQLQQSGPELVKPGASVKMSCKASGYTFANHVIHWVKQKPGQGLEWIGYIYPYNDGTKYNEKFKDKATLTSDKSSTTAYMDLSSLASEDSAVYYCARGGYYTYDDWGQGTTLTVSSGGGGSGGGGSGGGGSDVVMTQSPLSLPVSLGDQASISCRSSQSLVHSNGKTYLHWYLQKPGQSPKLLIYKVSNRFSGVPDRFSGSGSVTDFTLMISRVEAEDLGVYFCSQSTHVPYTFGGGTKLEIKDYKDDDDK
# notes: Single chain VH-VL-VH-VL from plasmid pCHOM2(Fv)2, with a C-terminal FLAG; Eluted at the position of the monomer in gel filtration
# How the values were obtained:
# [1] = target: T1, human Integrin Associated Protein (IAP) expressed on mouse leukemia cell line L1210 (human, UniProt Q08722 19-323); assay: flow cytometry, COS7 supernatant on L1210 cells expressing human IAP, anti-FLAG detection
# T1 construct: whole, on cells; also called human IAP; hIAP/L1210
# Experimental: Flow cytometry was performed using the culture supernatants of COS7 cells prepared in Example 6.3 (1) to measure the binding of the MABL2-scFVs and sc(Fv)₂ to human Integrin Associated Protein (IAP) antigen. The culture supernatants to be tested or a culture supernatant of COS7 cells as a control was added to 2×10⁵ cells of the mouse leukemia cell line L1210 expressing human IAP. After incubating on ice and washing, 10 μg/mL of the mouse anti-FLAG antibody (SIGMA) was added and then the cells were incubated and washed. Then, the FITC labeled anti-mouse IgG antibody (BECTON DICKINSON) was added thereto and the cells were incubated and washed again. The fluorescence intensity was measured using the FACScan apparatus (BECTON DICKINSON).
# [2] = target: secretion-type human IAP antigen (human, UniProt Q08722 19-142, limits assumed); assay: competitive ELISA on captured secretion-type human IAP; competitor biotinized MABL-2 antibody
# Experimental: The binding activity of the reconstructed single-chain Fv of antibody MABL-2 was measured based on the inhibiting activity against the binding of mouse monoclonal antibodies to the antigen.
# The anti-FLAG antibody adjusted to 1 μg/ml was added to each well on 96-well plate and incubated at 37° C. for 2 hours. After washing, blocking was performed with 1% BSA-PBS. After incubating and washing at a room temperature, the culture supernatant of COS7 cells into which the secretion-type human IAP antigen gene (SEQ ID No. 26) had been introduced was diluted with PBS into twofold volume and added to each well. After incubating and washing at a room temperature, a mixture of 50 μl of the biotinized MABL-2 antibody adjusted to 100 ng/ml and 50 μl of sequentially diluted supernatant of the COS7 cells expressing the reconstructed single-chain Fv of antibody MABL-2 were added into each well. After incubating and washing at a room temperature, the alkaline phosphatase-conjugated streptoavidin (Zymed) was added into each well. After incubating and washing at a room temperature, the substrate solution (SIGMA) was added and absorbance of the reaction mixture in each well was measured at 405 nm.
# [3] = target: T1, human Integrin Associated Protein (IAP) …; assay: flow cytometry, COS7 supernatant on L1210 cells expressing human IAP
# Experimental: Flow cytometry was performed using the aforementioned culture supernatant of COS7 cells to measure binding to the antigen. The culture supernatant of the COS7 cells expressing the chimera MABL-1 antibody or the COS7 cells expressing the chimera MABL-2 antibody, or human IgG antibody (SIGMA) as a control was added to 4×10⁵ cells of mouse leukemia cell line L1210 expressing human IAP and incubated on ice. After washing, the FITC-labeled anti-human IgG antibody (Cappel) was added thereto. After incubating and washing, the fluorescence intensity thereof was measured using the FACScan apparatus (BECTON DICKINSON).
# T1 sequence (Q08722 19-323): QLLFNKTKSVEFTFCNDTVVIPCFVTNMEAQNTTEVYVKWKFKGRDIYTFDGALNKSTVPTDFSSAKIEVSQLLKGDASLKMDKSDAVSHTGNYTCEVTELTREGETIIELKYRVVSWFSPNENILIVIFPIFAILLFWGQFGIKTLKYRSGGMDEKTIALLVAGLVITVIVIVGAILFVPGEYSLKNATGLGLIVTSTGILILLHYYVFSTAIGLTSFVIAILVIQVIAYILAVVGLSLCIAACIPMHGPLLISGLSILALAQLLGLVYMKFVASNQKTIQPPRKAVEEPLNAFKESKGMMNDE
# Chain of secretion-type human IAP antigen (Q08722 other isoform, or with tags, fused parts or gaps limits assumed): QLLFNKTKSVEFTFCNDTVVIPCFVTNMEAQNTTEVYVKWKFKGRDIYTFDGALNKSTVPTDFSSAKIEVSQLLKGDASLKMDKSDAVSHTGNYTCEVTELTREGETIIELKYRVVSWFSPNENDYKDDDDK
binder,measurement,setting,value
B1,binding result,[1],binds
B2,binding result,[1],binds
B3,binding result,[1],binds
same,binding result,[2],binds
B4,binding result,[3],binds
B5,binding result,[3],binds
B6,binding result,[1],binds
